Experimental data taken from IntAct's records for PubMed 18723617.

B1: Motility protein B (Salmonella typhimurium), P55892 (parent)
chain: MKNQAHPIVVVKRRRHKPHGGGAHGSWKIAYADFMTAMMAFFLVMWLISISSPKELIQIAEYFRTPLATAVTGGNRIANSESPIPGGGDDYTQQQGEVEKQPNIDELKKRMEQSRLNKLRGDLDQLIESDPKLRALRPHLKIDLVQEGLRIQIIDSQNRPMFKTGSAEVEPYMRDILRAIAPVLNGIPNRISLAGHTDDFPYANGEKGYSNWELSADRANASRRELVAGGLDNGKVLRVVGMAATMRLSDRGPDDAINRRISLLVLNKQAEQAILHENAESQNEPVSVLQQPAAAPPASVPTSPKAEPR
partner: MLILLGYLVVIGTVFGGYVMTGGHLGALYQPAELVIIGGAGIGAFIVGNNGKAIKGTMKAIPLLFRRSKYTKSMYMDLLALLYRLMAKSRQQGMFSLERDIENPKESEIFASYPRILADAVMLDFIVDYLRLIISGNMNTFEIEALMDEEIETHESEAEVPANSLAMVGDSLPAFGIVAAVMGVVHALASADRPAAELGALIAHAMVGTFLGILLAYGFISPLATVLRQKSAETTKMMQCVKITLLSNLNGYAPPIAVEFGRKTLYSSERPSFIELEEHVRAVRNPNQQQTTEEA

Variants of: B1
Conditions: with mota_salty motA

| Variant | effect of a mutation on the interaction |
| --- | --- |
| MKNQAHPIVVVKRRRHKPHGGGAHGSWKIAYAEFMTAMMAFFLVMWLISISSPKELIQIAEYFRTPLATAVTGGNRIANSESPIPGGGDDYTQQQGEVEKQPNIDELKKRMEQSRLNKLRGDLDQLIESDPKLRALRPHLKIDLVQEGLRIQIIDSQNRPMFKTGSAEVEPYMRDILRAIAPVLNGIPNRISLAGHTDDFPYANGEKGYSNWELSADRANASRRELVAGGLDNGKVLRVVGMAATMRLSDRGPDDAINRRISLLVLNKQAEQAILHENAESQNEPVSVLQQPAAAPPASVPTSPKAEPR [D33E] | decreasing interaction strength |
